In patent US20180298374A1 (Merck KGaA, published 2018):
Like-named read-outs stand apart in the source and are kept apart here.

Assays:
huEGFR [1] = molecular target: T1, huEGFR (human, UniProt P00533 25-645, limits assumed, phycoerythrin conjugate (LYNX rapid RPE kit))
T1 construct: also called EGFR-PE; EGFR-phycoerythrin

huEGFR [2] = molecular target: T1, huEGFR; remark: listed apart in the source

B1: matuzumab (antibody, V domains shown)
VH: QVQLVQSGAEVKKPGASVKVSCKASGYTFTSHWMHWVRQAPGQGLEWIGEFNPSNGRTNYNEKFKSKATMTVDTSTNTAYMELSSLRSEDTAVYYCASRDYDYDGRYFDYWGQGTLVTVSS
VL: DIQMTQSPSSLSASVGDRVTITCSASSSVTYMYWYQQKPGKAPKLLIYDTSNLASGVPSRFSGSGSGTDYTFTISSLQPEDIATYYCQQWSSHIFTFGQGTKVEIKG
Kd (huEGFR [1]): 113 nM
Kd (huEGFR [2]): 0.34 nM
